Assay results from publication PMC2045701, “Confocal fluorescence resonance energy transfer microscopy study of protein-protein interactions of lens crystallins in living cells” (Molecular Vision, 2007).

Biological target: GFP-αA-crystallin (UniProt P02489 2-173)
Test: cell-based or functional assay

Sequence of GFP-αA-crystallin (P02489 2-173): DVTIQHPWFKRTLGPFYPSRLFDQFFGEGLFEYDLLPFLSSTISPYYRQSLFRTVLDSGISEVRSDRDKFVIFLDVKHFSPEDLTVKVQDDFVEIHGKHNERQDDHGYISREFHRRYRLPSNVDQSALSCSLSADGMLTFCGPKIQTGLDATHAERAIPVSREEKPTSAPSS

B1: RED-αB-crystallin (natural protein, UniProt P02511 2-175, looked up)
chain: DIAIHHPWIRRPFFPFHSPSRLFDQFFGEHLLESDLFPTSTSLSPFYLRPPSFLRAPSWFDTGLSEMRLEKDRFSVNLDVKHFSPEELKVKVLGDVIEVHGKHEERQDEHGFISREFHRKYRIPADVDPLTITSSLSSDGVLTVNGPRKQVSGPERTIPITREEKPAVTAAPKK
  percentage of HeLa cells with protein aggregates, cotransfection of GFP-αA- and RED-αB-crystallin against RED-αB-crystallin alone (confocal microscopy): > 4 fold
